Test system: K4 kissing-loop RNA reporter
Experiment: apparent KD of K4 kissing-loop reporter; higher = weaker reporter binding
Settings: Eterna round: R107
Procedure: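 RNA-MaP round R107: designed RNA switches with theophylline, tryptophan, arginine or FMN aptamers are transcribed on-chip within common flanks. They are titrated with a labelled K4 kissing-loop RNA reporter in RNA-MaP buffer (100 mM Tris pH 7.5, 80 mM KCl, 4 mM MgCl2), without ligand or with the indicated ligand. Median apparent KD per design.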

[1] = input ligand: theophylline 20 uM
[2] = input ligand: tryptophan 2.4 mM
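Further: bound reporter read as fluorescence of individual clusters on recovered sequencing chips by microscopy, with normalized cluster intensities fitted with a binding model.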

Sequence	apparent KD of K4 kissing-loop reporter (input ligand: FMN 200 uM)	apparent KD of K4 kissing-loop reporter (input ligand: arginine 13.2 mM)	apparent KD of K4 kissing-loop reporter (input ligand: none)	apparent KD of K4 kissing-loop reporter [1]	apparent KD of K4 kissing-loop reporter [2]
AAGCCAAAGAUUGCUGCGGGUUCCAGAGAUACCAGCCGUAUUGAAGGCCCUUGGCAGCUCGAGUGAUGUUCGAGCCGUCUCUGGC [Lexerati]	0.127 µM	0.117 µM	0.117 µM	0.122 µM	0.105 µM
AAGCUACGCGCGGCCGCCACUGUUUAUGUAUAAAUGCGUCGCUCACUGCUUUAGUGAUGUUGAAGCAGGACCGGGCGAAUGGUAC [theeternabot_exclusion_KL_Trp_B_15]	0.0809 µM	0.075 µM	0.0796 µM	0.0765 µM	0.0827 µM
AAGGACGGGACUUCCUCGCCGGAUAGAGAUACCAGCCCAGCAAUGGGCCCUUGGCAGCUCACUGACCUCAGUGAUGUUGAGGUUC [Arange]	0.289 µM	0.203 µM	0.24 µM	0.193 µM	0.21 µM
AAGGCCACGAGAAGGAGCGUGCUAUGGAGUGAUGUUCCAGUGUAGACCUAAGGUCUACACGCACAGGUAGGUCGCUCGUGGUCAA [Omei KL Arginine B SS A v1]	0.209 µM	0.186 µM	0.203 µM	0.238 µM	0.186 µM
AAGGGCAGGACUUCCUUGCCGGAUAGAGAUACCAGCCCAGCAAAGGGCCCUUGGCAGCUCACUGACCUCAGUGAUGUUGAGGUUC [Xebisoer]	0.369 µM	0.268 µM	0.332 µM	0.272 µM	0.297 µM
AAGGGCUAGGCGGCCGCCACUGGUCGUGUACACAUACGAACCAGUGAUGUUGGUAUUGUAUGCGGCAGGACCGGGCCUAGCCGAA [Exclusion - Tryptophan B (Freestyle 26)]	0.415 µM	0.447 µM	0.448 µM	0.614 µM	0.405 µM
AAGGGCUAGGCGGCCGCCACUGGUCGUGUACACAUACGAGCCAGUGAUGUUGGUAUUGUGUGCGGCAGGACCGGGCCUAGCCGAA [Exclusion - Tryptophan B (Freestyle 25)]	0.41 µM	0.303 µM	0.304 µM	0.468 µM	0.387 µM
AAGGGCUAGGCGGCCGCCACUUGUUGUGAACACAUACGAGCCAGUGAUGUUGGUAUUGUGUGCGGAAGGACCGGGCCUAGCCGAA [Exclusion - Tryptophan B (Freestyle 22)]	0.178 µM	0.226 µM	0.228 µM	0.224 µM	0.302 µM
AAGGUAUCUAGAUGCUAGCAACAACUAGAUACCAGCAUCGAAAGAUGCCCUUGGCAGCUAGCAGUGAUGUUGCUAGCAAUAAGAA [Design4]	0.151 µM	0.13 µM	0.131 µM	0.158 µM	0.131 µM
AAGUAGCUCUCGGCCGCCACUCCUCAGUGAUGUUGAGAUAUUAACUGCCAAUUGGCGUAUUUAAAGAGGACCGGGAGAGCUACAA [AK2 SS Tryptophan B]	0.389 µM	0.389 µM	0.476 µM	0.397 µM	0.129 µM
AAGUGAUGUUGUAGUGAUGUUGUGAUGUUGCAGGAUAUAUAGUGAUGUAGAAGGGUAAGUACUGAUUUUUUUUGUGAGUGAUGUU [bbgvzrmullin]	0.0879 µM	0.0416 µM	0.0759 µM	0.0541 µM	0.0714 µM
AAGUGAUGUUGUAGUGAUGUUGUGAUGUUGCAGGAUAUAUAGUGAUGUAGAAGGGUAAGUACUUAUUUUUUUUUUGAGUGAUGUU [vcbczrmullin]	0.0966 µM	0.045 µM	0.0765 µM	0.058 µM	0.0837 µM
AAGUGAUGUUGUAGUGAUGUUGUGAUGUUGCAGGAUAUAUAGUGAUGUAGAAGGGUAUGUACAGAUUUUUUUUUUGAGUGAUGAU [ffdcmullin]	0.0834 µM	0.0371 µM	0.0649 µM	0.0481 µM	0.0661 µM
AAUAUACAGGGAAGGAGCGCCGUCCAGUGAUGUUGGAGUUAAAUACCAGUGAUGUUGGUUAGGCAGGUAGGUCGCCCUAAAGUAU [Exclusion Arginine B Gf 2]	0.125 µM	0.0827 µM	0.105 µM	0.102 µM	0.0967 µM
AAUAUAGUGAUGUUAUAUAAGAAGGAGUUACGAGGACCGGUACGGCCGCCACUCGAAACGAGUGAGGAUUUGGGAGAUUGGGUUC [SSTryptA.L]	0.465 µM	0.539 µM	0.393 µM	0.302 µM	0.283 µM
AAUAUAUAGUGAAGGAGCGCGUAUUGCAGUGAUGUUGCUAAGUUAUUAUUAUCUAUUUUUACGCAGGUAGGUCGCACUAUAUAUA [JR_SSArginiB_Sub014]	0.213 µM	0.231 µM	0.224 µM	0.245 µM	0.193 µM
AAUCAAUACAGAAGGAGCGUGACAAUUACUAUUGAAUUAGGUGCUAGUGAUGUUAGCAUUACACAGGUAGGUCGCUGUACAUUUA [JR_SSArginiB_Sub011]	0.0814 µM	0.0855 µM	0.0875 µM	0.089 µM	0.0783 µM
AAUGAUCGUAUGGCGAGGUACUCGUGUUCGAAGGAUAUUAAUAGAAUAAGAAGGUCGAAAUCGUGUCUGGAAGUGAUGUUUCCAU [theeternabot_sameState_KL_FMN_A_32]	0.111 µM	0.106 µM	0.106 µM	0.123 µM	0.0896 µM
AAUGCAUAGUGAAGGAGCGCGUAUAGCAGUGAUGUUGCUUACUUAUUAUUAUAUUAAUUGACGCAGGUAGGUCGCACUUUGCAUA [JR_ExcArginiB_Sub022]	0.196 µM	0.144 µM	0.196 µM	0.181 µM	0.156 µM
AAUUCAAACUGAAGGAGCGAGCAAAUCGGAGUGAUGUUCCAAGCGAGUGAUGUUCGCAUAGCUCAGGUAGGUCGCAGUUUGGAUA [Same State Arginie B GF 13]	0.12 µM	0.0952 µM	0.107 µM	0.101 µM	0.101 µM
AAUUCCUGUUAUGAUACCAGAAAUCACAGCAACCUGCCUACCUAGUGAUGUUAGGAGAAUUUCCCUUGGCAGCAUCGACUGAAGG [theeternabot_sameState_KL_Theo_B_38]	0.147 µM	0.173 µM	0.145 µM	0.151 µM	0.124 µM

Sequence	apparent KD of K4 kissing-loop reporter (input ligand: FMN 200 uM)	apparent KD of K4 kissing-loop reporter (input ligand: arginine 13.2 mM)	apparent KD of K4 kissing-loop reporter (input ligand: none)	apparent KD of K4 kissing-loop reporter [1]	apparent KD of K4 kissing-loop reporter [2]
AAUUUAUUAACUGAUACCAGACUUUAAUUUAUAUAUAUGUCUAGUGAUGUUAAACAUAUUGUCCCUUGGCAGCAGUAUUUAUUAA [JR_SSTheophyB_Sub020]	0.761 µM	0.399 µM	0.755 µM	0.768 µM	0.536 µM
ACACGGAGAGGCAUAACGUGCAUCUUCAGCGAGGAUAUCCAUUACAGGAGAAGGCGCUCCGGAGUGAUGUUCCGGCAAAAGAUAC [Quatatte]	0.0835 µM	0.151 µM	0.102 µM	0.146 µM	0.0915 µM
ACGAAGGAUGGAAGGAGCGCUCGUCAGUCCUGCGAGUGAUGUUCGUGGGUAAAUAUUCGCGAGCAGGUAGGUCGCCAUCUUGAGC [Soregeor]	0.144 µM	0.115 µM	0.144 µM	0.134 µM	0.129 µM
ACGACGCAUAGUGAUACCAGCACAAUAUGAGUGAUGUUCAACAUAUAAAUGUAAUAAUUAUGCCCUUGGCAGCACUAUGCGUCAG [KL-SSTheoB1]	0.658 µM	0.66 µM	0.793 µM	0.707 µM	0.591 µM
ACGACGGCAGCUCAGUGAUGUUGGGCAUUACGAGGACCGGUACGGCCGCCACUCGCUGCUUUGAUCCGUGGAUGAACCUCAGCAU [theeternabot_sameState_KL_Trp_A_13]	0.576 µM	0.464 µM	0.601 µM	0.734 µM	0.402 µM
ACGCGCGCGAGUGAUGUUCGGAGCGGCUGGCAGGAUAUGUAGCAAUGCAGAAGGGUCGUGGCGGGCGCGGCGAAAGCCGCGCCCG [#2 Exclusion - FMN A Attempt #6 (HarryS)]	0.15 µM	0.282 µM	0.444 µM	0.622 µM	0.293 µM
ACGCUUGAAUAACAAGCGAAAUAAAAUUCGCGAGGACCGGUACGGCCGCCACUCGCUAACUGCGAGUGAUGUUCGAUAAUAAAAU [Mat - Mod of OpenEnded 3 - D16]	0.139 µM	0.0802 µM	0.129 µM	0.208 µM	0.0691 µM
ACGGAUUCGAAUACCGAAUGAAAUAGGGAUACCAGCACGUGAACGUGCCCUUGGCAGCCCAGCCCAGUGAUGUUGGGCCCAUGGC [Biso]	0.173 µM	0.185 µM	0.179 µM	0.212 µM	0.204 µM
ACGUAGUUCUAGGAUACCAGCCAAGGUGCCAGGACAAAAGUCCUGGCAGUCAGUGAUGUUGGCCCUUGGCAGCCUAGAACUACGA [Omei KL Theo B Exc B v8]	0.176 µM	0.196 µM	0.215 µM	0.209 µM	0.218 µM
ACGUAUAUCAGAGGAUAUCGUAUUAAUAUUUUAUCUAUAUAGUUUUGCAGUGAUGUUGCAAUUAUUCGAGAAGGCUGAUUUACGA [JR_SSFMNB_Sub024]	0.0861 µM	0.0956 µM	0.0753 µM	0.0892 µM	0.0692 µM
ACGUGAAGCGACUCCUAGUUAAACCGGGAAGGAGCGCGGAUAACCGCAGGUAGGUCGCCCGGAAGCCGGACCAGUGAUGUUGGUC [Exclusion Arginine A Gf 26]	0.263 µM	0.191 µM	0.207 µM	0.217 µM	0.198 µM
ACGUGCACCAGUGAUGUUGGAAAAUAUGAAGGAGCGUGCGAAAGCACAGGUAGGUCGCAUAAUAGCACGAGCCACGAAAGUGGCA [#SwitchBubble 6 #K4Early #Sliding]	0.131 µM	0.159 µM	0.134 µM	0.132 µM	0.102 µM
ACUAGUUAAUCGGCCGCCACUUCUAGUGAUGUUAGAAUUAUCCAGAUUAUCAGCGUAGCACAUUGAAGGACCGGGAUAAGGUGGU [theeternabot_exclusion_KL_Trp_B_2]	0.275 µM	0.236 µM	0.269 µM	0.273 µM	0.261 µM
ACUGAAAGAUCUGAUACCAGACUUUUUGUAUUUAUUAAAACUAGUGAUGUUAGUUUAUCAGUCCCUUGGCAGCAGUUACUACAGA [JR_Nu_ExcTheophyB_Sub024]	0.091 µM	0.106 µM	0.105 µM	0.103 µM	0.0954 µM
ACUGCCAUUGCGGCCGCCACUAUCUCACUUUGCGAAUCUGCACCGACUGAGUGAUGUUCGGUAAAUAGGACCGGGCAAUGGGCCG [theeternabot_sameState_KL_Trp_B_26]	0.611 µM	0.479 µM	0.633 µM	0.281 µM	0.657 µM
ACUGGGUUGACGAAAGUCAACAAAAGAGAAGGAGCGCACGAAAGUGCAGGUAGGUCGCUCAUUCCAGUGAUGUUGGAUCACCAGA [#SwitchBubble 18 #K4Late]	0.242 µM	0.366 µM	0.453 µM	0.279 µM	0.199 µM
ACUUGAGCACAAAGCACACCAAGCAGUAGGUAGGAUAUCCGGCUUAGGAGAAGGACCAUGCAGUGAUGUUGCAUGCUCCUCCAUG [Onraordi]	0.267 µM	0.0947 µM	0.101 µM	0.102 µM	0.093 µM
AGAAACUUGUAUGUCGAGUGUGCGCGCGAUACCAGCCAAAUGGAUGGCCCUUGGCAGCGCUGCGAGUGAUGUUCGCCCGCUUGAC [#18 K4 Theophylline A Exclusion]	0.21 µM	0.244 µM	0.203 µM	0.192 µM	0.174 µM
AGAACUGUCUGAGAUACCAGCUAAGGAGUGAUGUUCCUAGCUCCACGAAAGUGGAGCCAUAGCCCUUGGCAGCUCAGACAGUUCA [Omei KL Theo B SS A v6]	0.866 µM	0.588 µM	1.05 µM	0.584 µM	0.747 µM
AGACCACAAAGUGGUCAGUGUUCGCGGCAGCGAGGACCGGUACGGCCGCCACUCGCGAGUGAUGUUCGCGAGAGCCGCGAACACA [Omei KL Tryp A Exc A v8]	0.0827 µM	0.0809 µM	0.0826 µM	0.0938 µM	0.0996 µM
AGACCACAAAGUGGUCAGUGUUCGCUGCAGCGAGGACCGGUACGGCCGCCACUCGCGAGUGAUGUUCGCGAGCGCAGCGAACACA [Omei KL Tryp A Exc A v5]	0.0959 µM	0.0681 µM	0.0926 µM	0.0756 µM	0.114 µM

— the supplement of paper PMC9170038
